Data set [1] relates to HeLa Kyoto. Briefly: solubility in G1/S (NP-40 vs SDS abundance) (log2 ratio); higher = more soluble. The settings on record: cell cycle stage: G1/S.
In data set [2] the test system is HeLa Kyoto. The experiment in a line: melting temperature (median over replicates), in situ; higher = more thermally stable.
Data set [3] relates to HeLa Kyoto. The experiment in a line: solubility change mitosis vs G1/S (difference of NP-40 vs SDS log2 ratios) (log2 ratio difference); higher = more soluble in mitosis.
The subject of data set [4] is HeLa Kyoto. The experiment in a line: thermal stability score vs G1/S (z-score of summed log2 fold changes over temperatures); higher = more thermally stable than in G1/S.
Where [5] appears, read: cell cycle stage: early G1 (4.5 h after nocodazole release).
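Throughout, for melting temperature (median over replicates), in situ: HeLa Kyoto cells synchronized by double thymidine or nocodazole block, proteins quantified by TMT10plex mass spectrometry, three independent biological replicates.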
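Throughout, for solubility change mitosis vs G1/S (difference of NP-40 vs SDS log2 ratios): synchronized HeLa Kyoto cells (double thymidine block for G1/S, nocodazole release for mitosis), protein amounts in NP-40 versus SDS lysates quantified by mass spectrometry, three biological replicates.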
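Throughout, for solubility in G1/S (NP-40 vs SDS abundance): HeLa Kyoto cells arrested at G1/S by double thymidine block, proteins quantified by TMT10plex mass spectrometry in mild NP-40 versus SDS extracts, three biological replicates.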
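Throughout, for thermal stability score vs G1/S (z-score of summed log2 fold changes over temperatures): synchronized HeLa Kyoto cells, proteins quantified by TMT10plex mass spectrometry, three biological replicates, mitosis taken 0.5 h after nocodazole release, G1/S directly after double thymidine block.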

In the case of “MDREERKTINQGQEDEMEIYGYNLSRWKLAIVSLGVICSGGFLLLLLYWMPEWRVKATCVRAAIKDCEVVLLRTTDEFKMWFCAKIRVLSLETYPVSSPKSMSNKLSNGHAVCLIENPTEENRHRISKYSQTESQQIRYFTHHSVKYFWNDTIHNFDFLKGLDEGVSCTSIYEKHSAGLTKGMHAYRKLLYGVNEIAVKVPSVFKLLIKEVLNPFYIFQLFSVILWSTDEYYYYALAIVVMSIVSIVSSLYSIRKQYVMLHDMVATHSTVRVSVCRVNEEIEEIFSTDLVPGDVMVIPLNGTIMPCDAVLINGTCIVNESMLTGESVPVTKTNLPNPSVDVKGIGDELYNPETHKRHTLFCGTTVIQTRFYTGELVKAIVVRTGFSTSKGQLVRSILYPKPTDFKLYRDAYLFLLCLVAVAGIGFIYTIINSILNEVQVGVIIIESLDIITITVPPALPAAMTAGIVYAQRRLKKIGIFCISPQRINICGQLNLVCFDKTGTLTEDGLDLWGIQRVENARFLSPEENVCNEMLVKSQFVACMATCHSLTKIEGVLSGDPLDLKMFEAIGWILEEATEEETALHNRIMPTVVRPPKQLLPESTPAGNQEMELFELPATYEIGIVRQFPFSSALQRMSVVARVLGDRKMDAYMKGAPEAIAGLCKPETVPVDFQNVLEDFTKQGFRVIALAHRKLESKLTWHKVQNISRDAIENNMDFMGLIIMQNKLKQETPAVLEDLHKANIRTVMVTGDSMLTAVSVARDCGMILPQDKVIIAEALPPKDGKVAKINWHYADSLTQCSHPSAIDPEAIPVKLVHDSLEDLQMTRYHFAMNGKSFSVILEHFQDLVPKLMLHGTVFARMAPDQKTQLIEALQNVDYFVGMCGDGANDCGALKRAHGGISLSELEASVASPFTSKTPSISCVPNLIREGRAALITSFCVFKFMALYSIIQYFSVTLLYSILSNLGDFQFLFIDLAIILVVVFTMSLNPAWKELVAQRPPSGLISGALLFSVLSQIIICIGFQSLGFFWVKQQPWYEVWHPKSDACNTTGSGFWNSSHVDNETELDEHNIQNYENTTVFFISSFQYLIVAIAFSKGKPFRQPCYKNYFFVFSVIFLYIFILFIMLYPVASVDQVLQIVCVPYQWRVTMLIIVLVNAFVSITVEESVDRWGKCCLPWALGCRKKTPKAKYMYLAQELLVDPEWPPKPQTTTEAKALVKENGSCQIITIT [ATP13A3]”, in the data set with HeLa Kyoto [1], the “solubility in G1/S (log2)” value is -0.205. For the same sequence, the values for the melting temperature in the data set on HeLa Kyoto [2] (cell cycle stage: G1/S) and in the data set on HeLa Kyoto [2] (cell cycle stage: mitosis) were 54.3 °C and 53.9 °C, respectively. In the data set on HeLa Kyoto [3], the “solubility change mitosis (log2)” value was -0.0406. Also, the thermal stability score was -0.654 in the data set on HeLa Kyoto [4] (setting [5]) and -0.884 with HeLa Kyoto [4] (cell cycle stage: mitosis).

Take “MDRFVWTSGLLEINETLVIQQRGVRIYDGEEKIKFDAGTLLLSTHRLIWRDQKNHECCMAILLSQIVFIEEQAAGIGKSAKIVVHLHPAPPNKEPGPFQSSKNSYIKLSFKEHGQIEFYRRLSEEMTQRRWENMPVSQSLQTNRGPQPGRIRAVGIVGIERKLEEKRKETDKNISEAFEDLSKLMIKAKEMVELSKSIANKIKDKQGDITEDETIRFKSYLLSMGIANPVTRETYGSGTQYHMQLAKQLAGILQVPLEERGGIMSLTEVYCLVNRARGMELLSPEDLVNACKMLEALKLPLRLRVFDSGVMVIELQSHKEEEMVASALETVSEKGSLTSEEFAKLVGMSVLLAKERLLLAEKMGHLCRDDSVEGLRFYPNLFMTQS [VPS36]”: the “solubility in G1/S (log2)” value in the data set with HeLa Kyoto [1] is -0.823. Also, the melting temperature worked out at 51.6 °C in the data set with HeLa Kyoto [2] (cell cycle stage: G1/S) and 51 °C with HeLa Kyoto [2] (cell cycle stage: mitosis). Also, the “solubility change mitosis (log2)” value in the data set with HeLa Kyoto [3] is -0.0782. For the same sequence, the thermal stability score in the data set with HeLa Kyoto [4] (setting [5]) stood at 1.41; in the data set with HeLa Kyoto [4] (cell cycle stage: mitosis), 2.15.

As to “MDRMTEDALRLNLLKRSLDPADERDDVLAKRLKMEGHEAMERLKMLALLKRKDLANLEVPHELPTKQDGSGVKGYEEKLNGNLRPHGDNRTAGRPGKENINDEPVDMSARRSEPERGRLTPSPDIIVLSDNEASSPRSSSRMEERLKAANLEMFKGKGIEERQQLIKQLRDELRLEEARLVLLKKLRQSQLQKENVVQKTPVVQNAASIVQPSPAHVGQQGLSKLPSRPGAQGVEPQNLRTLQGHSVIRSATNTTLPHMLMSQRVIAPNPAQLQGQRGPPKPGLVRTTTPNMNPAINYQPQSSSSVPCQRTTSSAIYMNLASHIQPGTVNRVSSPLPSPSAMTDAANSQAAAKLALRKQLEKTLLEIPPPKPPAPLLHFLPSAANSEFIYMVGLEEVVQSVIDSQGKSCASLLRVEPFVCAQCRTDFTPHWKQEKNGKILCEQCMTSNQKKALKAEHTNRLKNAFVKALQQEQEIEQRLQQQAALSPTTAPAVSSVSKQETIMRHHTLRQAPQPQSSLQRGIPTSARSMLSNFAQAPQLSVPGGLLGMPGVNIAYLNTGIGGHKGPSLADRQREYLLDMIPPRSISQSISGQK [GATAD2B]”, in the data set with HeLa Kyoto [1], the “solubility in G1/S (log2)” value was determined as 0.413. Moreover, the values for the melting temperature in the data set with HeLa Kyoto [2] (cell cycle stage: G1/S) and with HeLa Kyoto [2] (cell cycle stage: mitosis) were 49 °C and 50.6 °C, respectively. Further, the “solubility change mitosis (log2)” value with HeLa Kyoto [3] stood at 0.158. Also, the thermal stability score turned out to be 1.06 with HeLa Kyoto [4] (setting [5]) and 3.82 in the data set on HeLa Kyoto [4] (cell cycle stage: mitosis).

As for “MDRSGFGEISSPVIREAEVTRTARKQSAQKRVLLQASQDENFGNTTPRNQVIPRTPSSFRQPFTPTSRSLLRQPDISCILGTGGKSPRLTQSSGFFGNLSMVTNLDDSNWAAAFSSQRSGLFTNTEPHSITEDVTISAVMLREDDPGEAASMSMFSDFLQSFLKHSSSTVFDLVEEYENICGSQVNILSKIVSRATPGLQKFSKTASMLWLLQQEMVTWRLLASLYRDRIQSALEEESVFAVTAVNASEKTVVEALFQRDSLVRQSQLVVDWLESIAKDEIGEFSDNIEFYAKSVYWENTLHTLKQRQLTSYVGSVRPLVTELDPDAPIRQKMPLDDLDREDEVRLLKYLFTLIRAGMTEEAQRLCKRCGQAWRAATLEGWKLYHDPNVNGGTELEPVEGNPYRRIWKISCWRMAEDELFNRYERAIYAALSGNLKQLLPVCDTWEDTVWAYFRVMVDSLVEQEIQTSVATLDETEELPREYLGANWTLEKVFEELQATDKKRVLEENQEHYHIVQKFLILGDIDGLMDEFSKWLSKSRNNLPGHLLRFMTHLILFFRTLGLQTKEEVSIEVLKTYIQLLIREKHTNLIAFYTCHLPQDLAVAQYALFLESVTEFEQRHHCLELAKEADLDVATITKTVVENIRKKDNGEFSHHDLAPALDTGTTEEDRLKIDVIDWLVFDPAQRAEALKQGNAIMRKFLASKKHEAAKEVFVKIPQDSIAEIYNQCEEQGMESPLPAEDDNAIREHLCIRAYLEAHETFNEWFKHMNSVPQKPALIPQPTFTEKVAHEHKEKKYEMDFGIWKGHLDALTADVKEKMYNVLLFVDGGWMVDVREDAKEDHERTHQMVLLRKLCLPMLCFLLHTILHSTGQYQECLQLADMVSSERHKLYLVFSKEELRKLLQKLRESSLMLLDQGLDPLGYEIQL [NUP107]”, the “solubility in G1/S (log2)” value in the data set on HeLa Kyoto [1] was -0.526. For the same sequence, the melting temperature in the data set on HeLa Kyoto [2] (cell cycle stage: G1/S) came out at 51.1 °C; with HeLa Kyoto [2] (cell cycle stage: mitosis) it was 49.3 °C. The “solubility change mitosis (log2)” value in the data set with HeLa Kyoto [3] was 0.428. Besides, the figures for the thermal stability score in the data set with HeLa Kyoto [4] (setting [5]) and with HeLa Kyoto [4] (cell cycle stage: mitosis) were -2.75 and -3.13, respectively.

Regarding “MDSALSDPHNGSAEAGGPTNSTTRPPSTPEGIALAYGSLLLMALLPIFFGALRSVRCARGKNASDMPETITSRDAARFPIIASCTLLGLYLFFKIFSQEYINLLLSMYFFVLGILALSHTISPFMNKFFPASFPNRQYQLLFTQGSGENKEEIINYEFDTKDLVCLGLSSIVGVWYLLRKHWIANNLFGLAFSLNGVELLHLNNVSTGCILLGGLFIYDVFWVFGTNVMVTVAKSFEAPIKLVFPQDLLEKGLEANNFAMLGLGDVVIPGIFIALLLRFDISLKKNTHTYFYTSFAAYIFGLGLTIFIMHIFKHAQPALLYLVPACIGFPVLVALAKGEVTEMFSYEESNPKDPAAVTESKEGTEASASKGLEKKEK [HM13]”, the “solubility in G1/S (log2)” value in the data set on HeLa Kyoto [1] is -0.106. The melting temperature was 60.5 °C in the data set on HeLa Kyoto [2] (cell cycle stage: G1/S) and 59.8 °C with HeLa Kyoto [2] (cell cycle stage: mitosis). In addition, in the data set on HeLa Kyoto [3], the “solubility change mitosis (log2)” value is -0.167. For the same sequence, the values for the thermal stability score in the data set with HeLa Kyoto [4] (setting [5]) and in the data set on HeLa Kyoto [4] (cell cycle stage: mitosis) were -1.07 and -1.15, respectively.

Take “MDSGSSSSDSAPDCWDQVDMESPGSAPSGDGVSSAVAEAQREPLSSAFSRKLNVNAKPFVPNVHAAEFVPSFLRGPTQPPTLPAGSGSNDETCTGAGYPQGKRMGRGAPVEPSREEPLVSLEGSNSAVTMELSEPVVENGEVEMALEESWEHSKEVSEAEPGGGSSGDSGPPEESGQEMMEEKEEIRKSKSVIVPSGAPKKEHVNVVFIGHVDAGKSTIGGQIMFLTGMVDKRTLEKYEREAKEKNRETWYLSWALDTNQEERDKGKTVEVGRAYFETERKHFTILDAPGHKSFVPNMIGGASQADLAVLVISARKGEFETGFEKGGQTREHAMLAKTAGVKHLIVLINKMDDPTVNWSIERYEECKEKLVPFLKKVGFSPKKDIHFMPCSGLTGANIKEQSDFCPWYTGLPFIPYLDNLPNFNRSIDGPIRLPIVDKYKDMGTVVLGKLESGSIFKGQQLVMMPNKHNVEVLGILSDDTETDFVAPGENLKIRLKGIEEEEILPGFILCDPSNLCHSGRTFDVQIVIIEHKSIICPGYNAVLHIHTCIEEVEITALISLVDKKSGEKSKTRPRFVKQDQVCIARLRTAGTICLETFKDFPQMGRFTLRDEGKTIAIGKVLKLVPEKD [GSPT2]”: the “solubility in G1/S (log2)” value in the data set with HeLa Kyoto [1] turned out to be 0.153. The same sequence had a melting temperature in the data set on HeLa Kyoto [2] (cell cycle stage: mitosis) of 53.5 °C. Besides, the “solubility change mitosis (log2)” value in the data set on HeLa Kyoto [3] was -0.124. Moreover, the thermal stability score was -1.05 in the data set on HeLa Kyoto [4] (setting [5]) and -1.43 with HeLa Kyoto [4] (cell cycle stage: mitosis).

For the origin of these results see the supplement of paper PMC5998384.
